Reference: the supplement of paper PMC11246515
± gives the standard deviation of the averaged measurements.

Test: total protein half-life in vivo (active degradation + dilution); higher = more stable protein
[1] = E. coli NCM3722 delta-clpP delta-lon delta-hslV, growth: N-lim chemostat, doubling time 6 h
[2] = E. coli NCM3722 delta-clpP, growth: N-lim chemostat, doubling time 6 h
[3] = E. coli NCM3722 delta-hslV, growth: N-lim chemostat, doubling time 6 h
[4] = E. coli NCM3722 delta-smpB, growth: N-lim chemostat, doubling time 6 h
[5] = wild type E. coli NCM3722, growth: C-lim chemostat, doubling time 3 h
[6] = wild type E. coli NCM3722, growth: C-lim chemostat, doubling time 6 h
[7] = wild type E. coli NCM3722, growth: C-lim chemostat, doubling time 12 h
[8] = wild type E. coli NCM3722, growth: N-lim chemostat, doubling time 6 h
[9] = wild type E. coli NCM3722, growth: P-lim chemostat, doubling time 6 h
[10] = wild type E. coli NCM3722, growth: P-lim chemostat, doubling time 12 h
[11] = E. coli NCM3722 delta-lon, growth: N-lim chemostat, doubling time 6 h
[12] = wild type E. coli NCM3722, growth: N-lim chemostat, doubling time 12 h

MQTTQQNAPLKRTMKTRHLIMLSLGGVIGTGLFFNTGYIISTTGAAGTLLAYLIGALVVWLVMQCLGELSVAMPETGAFHVYAARYLGPATGYTVAWLYWLTWTVALGSSFTAAGFCMQYWFPQVPVWVWCVVFCAIIFGLNVISTRFFAEGEFWFSLVKVVTIIAFIILGGAAIFGFIPMQDGSPAPGLSNITAEGWFPHGGLPILMTMVAVNFAFSGTELIGIAAGETENPRKVIPVAIRTTIARLIIFFIGTVFVLAALIPMQQVGVEKSPFVLVFEKVGIPYAADIFNFVILTAILSAANSGLYASGRMLWSLSNERTLPACFARVTKNGVPLTALSVSMLGGVLALFSSVVAPDTVFVALSAISGFAVVAVWLSICASHFVFRRRHLQQGKALSELHYRAPWYPLVPVLGFVLCLVACVGLAFDPAQRIALWCGLPFVALCYGAYFLTQPRNAKQEPEHVAE
total protein half-life in vivo [1]: 3.09 ± 0.25 h
total protein half-life in vivo [2]: 1.78 h
total protein half-life in vivo [3]: 3.13 h
total protein half-life in vivo [4]: 2.51 ± 0.28 h
total protein half-life in vivo [5]: 3.05 ± 0.71 h
total protein half-life in vivo [6]: 4.13 ± 0.25 h
total protein half-life in vivo [7]: 7.02 ± 0.5 h
total protein half-life in vivo [8]: 3.79 h
total protein half-life in vivo [9]: 3.63 ± 0.43 h
total protein half-life in vivo [10]: 7.23 h

MQTVIFGRSGCPYCVRAKDLAEKLSNERDDFQYQYVDIRAEGITKEDLQQKAGKPVETVPQIFVDQQHIGGYTDFAAWVKENLDA
total protein half-life in vivo [1]: 5.87 h
total protein half-life in vivo [2]: 3.94 h
total protein half-life in vivo [3]: 3.72 h
total protein half-life in vivo [11]: 4.75 ± 0.46 h
total protein half-life in vivo [4]: 3.33 h
total protein half-life in vivo [5]: 2.14 h
total protein half-life in vivo [6]: 4.99 h
total protein half-life in vivo [7]: 6.22 h
total protein half-life in vivo [8]: 3.39 h
total protein half-life in vivo [12]: 5.49 h
total protein half-life in vivo [9]: 4.16 h
total protein half-life in vivo [10]: 7.26 ± 0.75 h

MQVDLLGSAQSAHALHLFHQHSPLVHCMTNDVVQTFTANTLLALGASPAMVIETEEASQFAAIASALLINVGTLTQPRAQAMRAAVEQAKSSQTPWTLDPVAVGALDYRRHFCHELLSFKPAAIRGNASEIMALAGIANGGRGVDTTDAAANAIPAAQTLARETGAIVVVTGEMDYVTDGHRIIGIHGGDPLMTKVVGTGCALSAVVAACCALPGDTLENVASACHWMKQAGERAVARSEGPGSFVPHFLDALWQLTQEVQA
total protein half-life in vivo [1]: 4.08 ± 0.34 h
total protein half-life in vivo [2]: 3.41 ± 0.17 h
total protein half-life in vivo [3]: 3.27 ± 0.13 h
total protein half-life in vivo [11]: 3.94 h
total protein half-life in vivo [4]: 3.42 ± 0.044 h
total protein half-life in vivo [5]: 3.01 ± 0.68 h
total protein half-life in vivo [6]: 4.89 ± 1.2 h
total protein half-life in vivo [7]: 8.48 ± 1 h
total protein half-life in vivo [8]: 3.4 ± 0.41 h
total protein half-life in vivo [12]: 5.17 ± 0.24 h
total protein half-life in vivo [9]: 5.64 ± 0.14 h
total protein half-life in vivo [10]: 10.3 ± 0.67 h

MQVFIMRHGDAALDAASDSVRPLTTNGCDESRLMANWLKGQKVEIERVLVSPFLRAEQTLEEVGDCLNLPSSAEVLPELTPCGDVGLVSAYLQALTNEGVASVLVISHLPLVGYLVAELCPGETPPMFTTSAIASVTLDESGNGTFNWQMSPCNLKMAKAI
total protein half-life in vivo [1]: 4.59 ± 0.56 h
total protein half-life in vivo [2]: 4.209 ± 0.026 h
total protein half-life in vivo [3]: 0.943 ± 0.06 h
total protein half-life in vivo [11]: 0.853 ± 0.11 h
total protein half-life in vivo [4]: 1.03 ± 0.01 h
total protein half-life in vivo [5]: 1.06 ± 0.013 h
total protein half-life in vivo [6]: 1.35 ± 0.12 h
total protein half-life in vivo [7]: 1.57 ± 0.41 h
total protein half-life in vivo [8]: 1.13 ± 0.12 h
total protein half-life in vivo [12]: 1.5 ± 0.33 h
total protein half-life in vivo [9]: 1.25 ± 0.38 h
total protein half-life in vivo [10]: 2.5 ± 0.88 h

MQYPINEMFQTLQGEGYFTGVPAIFIRLQGCPVGCAWCDTKHTWEKLEDREVSLFSILAKTKESDKWGAASSEDLLAVIGRQGYTARHVVITGGEPCIHDLLPLTDLLEKNGFSCQIETSGTHEVRCTPNTWVTVSPKLNMRGGYEVLSQALERANEIKHPVGRVRDIEALDELLATLTDDKPRVIALQPISQKDDATRLCIETCIARNWRLSMQTHKYLNIA
total protein half-life in vivo [1]: 4.61 ± 0.46 h
total protein half-life in vivo [2]: 3.94 h
total protein half-life in vivo [3]: 3.81 ± 0.46 h
total protein half-life in vivo [11]: 4.5 ± 0.086 h
total protein half-life in vivo [4]: 3.79 ± 0.57 h
total protein half-life in vivo [5]: 2.309 ± 0.014 h
total protein half-life in vivo [6]: 4.33 ± 0.17 h
total protein half-life in vivo [7]: 6.66 ± 0.86 h
total protein half-life in vivo [8]: 3.7 ± 0.29 h
total protein half-life in vivo [12]: 6.06 ± 0.13 h
total protein half-life in vivo [9]: 4.61 ± 0.56 h
total protein half-life in vivo [10]: 7.47 ± 0.8 h
